Here are results for eleven molecules from patent publication US20180355043A1 (Janssen / Centocor, published 2018).

For orientation: Kd means a measure of binding affinity in units of concentration. A low value points to tighter binding. A word on the koff: it is the first-order rate constant of dissociation. The term kon denotes the second-order rate constant of association. Low readings indicate slow association, high ones fast association.

The target in assay [1] is T1, DR4G89: Human HLA-DRA1*01:02/DRB1*04:01 ECD with hemagglutinin peptide HA_304-318 (human).
T1 construct: also called DRG89; HLA-DR4 with HA_304-318
Description: MSD ECL; antigen coated.

Assay [2] has as its target T2, DR4G93: Human HLA-DRA1*01:02/DRB1*01:01 ECD with hemagglutinin peptide HA_304-318 (human).
T2 construct: also called HLA-DR1 with HA_304-318
Description: MSD ECL; antigen coated.

In assay [3] the target is T1, DR4G89: Human HLA-DRA1*01:02/DRB1*04:01 …. Description: MSD ECL; antigen coated; mAb 0.2 µg/ml.
Description: (§1) Select generated antibodies were characterized for their binding to soluble HLA-DR, HLA-DQ or HLA-DP antigens with various peptides attached to the N-terminus of the beta chains. […] The soluble antigens of DR, DP and DQ were coated on MSD standard plates (Meso Scale Discovery, Cat. No. L15XA-3) at 5 μg/ml at 4° C. overnight. […] Binding to DR antigens was tested with four antibody concentrations ranging from 0.04-5 μg/ml. Binding to DP and DQ antigens was tested with one concentration at 5 μg/ml. After three washes, SulfoTag anti-human/NHP Kappa secondary antibody (Meso Scale Discovery, Cat. No. D20TF-6) was added and incubated for 1 hour. After another three washes, the plates were read under MSD reader (Meso Scale Discovery), and electrochemiluminescence (ECL) was measured.
The target in assay [4] is T2, DR4G93: Human HLA-DRA1*01:02/DRB1*01:01 …. Put plainly: MSD ECL; antigen coated; mAb 0.2 µg/ml.
Description: as §1
Assay [5] concerns the target T3, DR4G103: Human HLA-DRA1*01:02/DRB1*15:01 ECD with hemagglutinin peptide HA_304-318 (human).
T3 construct: also called DRB1*15:01 HA
Put plainly: MSD ECL; antigen coated; protocol of Example 3.
Description: as §1
(§2) Select antibodies were further characterized for their binding to soluble HLA-DR, HLA-DQ and HLA-DP antigens in complex with various peptides which were covalently attached to the N-terminus of the beta chains.

The target in assay [6] is T4, DR4G104: Human HLA-DRA1*01:02/DRB1*04:02 ECD with hemagglutinin peptide HA_304-318 (human).
T4 construct: also called DRB1*04:02 HA
Description: MSD ECL; antigen coated; protocol of Example 3.
Description: (§3) The soluble antigens of DR, DP and DQ were coated on MSD standard plates (Meso Scale Discovery, Cat. No. L15XA-3) at 5 μg/ml at 4° C. overnight. […] Binding to DR antigens was tested with four antibody concentrations ranging from 0.04-5 μg/ml. Binding to DP and DQ antigens was tested with one concentration at 5 μg/ml. After three washes, SulfoTag anti-human/NHP Kappa secondary antibody (Meso Scale Discovery, Cat. No. D20TF-6) was added and incubated for 1 hour. After another three washes, the plates were read under MSD reader (Meso Scale Discovery), and electrochemiluminescence (ECL) was measured.
as §2

For assay [7], the target named is T5, DR4G119: Human HLA-DRA1*01:02/DRB1*10:01 ECD with hemagglutinin peptide HA_304-318 (human).
T5 construct: also called DRB1*10:01 HA
Description: MSD ECL; antigen coated; protocol of Example 3.
Description: as §3, §2

Assay [8] deals with T1, DR4G89: Human HLA-DRA1*01:02/DRB1*04:01 …. Description: MSD ECL; antigen coated; mAb 0.2 µg/ml. This is another data set of the same source.
Assay [9] addresses T2, DR4G93: Human HLA-DRA1*01:02/DRB1*01:01 …. Description: MSD ECL; antigen coated; mAb 0.2 µg/ml. The source holds these as a separate data set.
Assay [10] has the same target. Put plainly: SPR ProteOn XPR36; mAb amine-coupled, antigen as analyte; 25 °C.
Assay [11] deals with T1, DR4G89: Human HLA-DRA1*01:02/DRB1*04:01 …. Described as above.
Assay [12] addresses T3, DR4G103: Human …. Description: MSD ECL; antigen coated.
For assay [13], the target named is T4, DR4G104: Human …. Put plainly: MSD ECL; antigen coated.

Positions count from the first letter of the chain named. Where two headings read alike, the source gives them in different places.

B1: DR4B33 (antibody, human IgG2, kappa, V domains shown)
VH: EVQLVQSGAEVKKPGESLKISCKGSGYSFDSAYINWVRQMPGKGLEWMGIIRPGDSRTRYSPSFQGQVTISADKSISTAYLQWSSLKASDTAVYYCARDGYYFVGSIIYYGMDVWGQGTLVTVSS
VL: not shown
notes: also called VH DR4H58 / VL PH9L4
For B1, the binding result in assay [1] and in assay [2] was “binds” in each case.

B2: DR4B98 (antibody, human IgG2, kappa, V domains shown)
VH: QVQLVQSGAEVKKPGSSVKVSCKASGGTFKSYYIHWVRQAPGQGLEWMGGIAPIYGTAYYAQKFQGRVTITADESTSTAYMELSSLRSEDTAVYYCARDASWARAYGFDYWGQGTLVTVSS
VL: EIVLTQSPATLSLSPGERATLSCRASQSVSSYLAWYQQKPGQAPRLLIYDASNRATGIPARFSGSGSGTDFTLTISSLEPEDFAVYYCQQRSNWPLTFGQGTKVEIKR
notes: also called VH DR4H50 / VL PH9L3
For the molecule B2, the ECL signal was 775000 ECL in assay [3]; 140000 ECL in [4]; 34700 ECL in [5]; 421000 ECL in assay [6]; 94700 ECL in [7].

B3: DR4B30 (antibody, human IgG2, kappa, V domains shown)
VH: EVQLVQSGAEVKKPGESLKISCKGSGYSFTSDWIGWVRQMPGKGLEWMGIIRPGDSDTYYSPSFQGQVTISADKSISTAYLQWSSLKASDTAVYYCARESYYYVGVRYRPSYYFDYWGQGTLVTVSS
VL: B2 VL
notes: also called VH DR4H39 / VL PH9L3
In the case of B3, the ECL signal in assay [3] is 1.13e+06 ECL; in assay [4], 1.07e+06 ECL; in [8], 1.13e+06 ECL; in assay [9], 1.07e+06 ECL.

B4: DR4B78 (antibody, human IgG2, kappa, V domains shown)
VH: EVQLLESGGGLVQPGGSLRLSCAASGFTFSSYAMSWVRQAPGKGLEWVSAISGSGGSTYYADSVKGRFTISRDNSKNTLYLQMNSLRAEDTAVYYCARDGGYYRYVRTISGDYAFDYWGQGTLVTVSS
VL: B2 VL
notes: also called VH DR4H62 / VL PH9L3
B4: the ECL signal in [8] worked out at 979000 ECL; in assay [9], 1.06e+06 ECL.

B5: DR4B127 (antibody, human IgG2, kappa, V domains shown)
VH: B2 VH with A52R, Y55S, T57N, Y59E, W102Y, A103Y, A105N
VL: B2 VL
notes: also called VH DR4H7 / VL PH9L3
As for B5, the ECL signal in assay [3] came out at 1.03e+06 ECL; in assay [4], 918000 ECL; in assay [5], 334000 ECL; in assay [6] it was 1.27e+06 ECL; in assay [7] it was 1.24e+06 ECL. The Kd was found to be 47.7 nM in assay [10] and 9.19 nM in [11]. For the same molecule, the koff in assay [10] came out at 0.00092 s⁻¹; in assay [11] it was 0.000155 s⁻¹. Moreover, the kon in assay [10] came out at 19300 M⁻¹ s⁻¹; in assay [11] it was 16800 M⁻¹ s⁻¹.

B6: DR4B70 (antibody, human IgG2, kappa, V domains shown)
VH: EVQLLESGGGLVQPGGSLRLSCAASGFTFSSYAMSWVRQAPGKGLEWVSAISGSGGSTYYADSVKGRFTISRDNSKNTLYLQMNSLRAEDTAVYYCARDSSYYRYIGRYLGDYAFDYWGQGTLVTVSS
VL: B2 VL
notes: also called VH DR4H29 / VL PH9L3
Take B6: the ECL signal in [8] was determined as 888000 ECL; in assay [9], 972000 ECL.

B7: DR4B22 (antibody, human IgG2, kappa, V domains shown)
VH: EVQLLESGGGLVQPGGSLRLSCAASGFTFSSYAMNWVRQAPGKGLEWVSAISGSGGYTNYADSVKGRFTISRDNSKNTLYLQMNSLRAEDTAVYYCARDGGYYRYVYRYPGDYAFGYWGQGTLVTVSS
VL: B2 VL
notes: also called VH DR4H16 / VL PH9L3
Take B7: the ECL signal in [8] came out at 1.01e+06 ECL; in assay [9], 896000 ECL.

B8: DR4B38 (antibody, human IgG2, kappa, V domains shown)
VH: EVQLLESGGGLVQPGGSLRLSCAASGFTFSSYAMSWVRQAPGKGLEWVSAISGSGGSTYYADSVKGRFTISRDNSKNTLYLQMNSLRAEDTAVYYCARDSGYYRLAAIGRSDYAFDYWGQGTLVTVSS
VL: B2 VL
notes: also called VH DR4H56 / VL PH9L3
Consider B8, for which the ECL signal in [8] turned out to be 1.22e+06 ECL; in assay [9], 1.12e+06 ECL.

B9: DR4B6 (antibody, V domains shown)
VH: QIQLVQSGPELKKPGETVKISCKASGFTFTNYGMNWVKQAPGKGLKWMGWINTYTREPTYADDFKGRFAFSLETSASTAYLQINNLKNEDTAKYFCARDITAVVPTGFDYWGQGTTLTVSS
VL: DIQMTQSPASLSVSVGETVTITCRASENIYSNLAWYRQKQGKSPQLLVFAASNLADGVPSRFSGSGSGTQYSLKINSLQSEDFGDYYCQHFWTTPWAFGGGTNLEIK
notes: also called L243 re-engineered as IgG2sigma
Turning to B9, the ECL signal is 1.34e+06 ECL in assay [3]; 1.32e+06 ECL in assay [4]; 142000 ECL in assay [5]; 415000 ECL in [6]; 580000 ECL in assay [7].

B10: DR4B5 (antibody, V domains shown)
VH: QVQLQESGPGLVKPSETLSLTCTVSGFSLTNYGVHWVRQSPGKGLEWIGVKWSGGSTEYNAAFISRLTISKDTSKNQVSLKLNSLTAADTAVYYCARNDRYAMDYWGQGTLVTVSS
VL: DIQMTQSPSSLSASVGDRVTITCRASENIYSYLAWYQQKPGKAPKLLVSNAKTLAEGVPSRFSGSGSGKQFTLTISSLQPEDFATYYCQHHYGNSYPFGQGTKLEIK
notes: also called apolizumab (1D10) re-engineered as IgG2sigma
For B10, the ECL signal in assay [3] was determined as 1.26e+06 ECL; in [4], 1.3e+06 ECL; in assay [5], 329 ECL; in assay [6], 825 ECL; in [7], 132000 ECL. Moreover, the binding result in [12] and in assay [13] was “no binding” throughout.

B11: DR4B4 (antibody, V domains shown)
VH: QVQLKESGPGLVAPSQSLSITCTISGFSLTSYGVHWVRQPPGKGLEWLVVIWSDGSTTYNSALKSRLSISKDNSKSQVFLKMNSLQTDDTAIYYCASHYGSTLAFASWGHGTLVTVSA
VL: DIQMTQSPASLSASVGETVTIICRASVNIYSYLAWYQQKQGKSPQLLVYNAKILAEGVPSRFSGSGSGTQFSLKINSLQPEDFGSYYCQHHYGPFTFGSGTKLEIK
notes: also called Lym-1 re-engineered as IgG2sigma
As to B11, the ECL signal is 1.28e+06 ECL in [3]; 888000 ECL in [4]; 287 ECL in assay [5]; 451 ECL in assay [6]; 572000 ECL in assay [7]. Also, the binding result in assay [12] and in assay [13] was “no binding” each time.
